Measurements taken from paper PMC8670446.

Biological target: His-tagged luciferase, heat-aggregated on the BLI sensor [luciferase: P08659]
Assay: BLI; protein aggregate immobilised on the sensor (His-tagged luciferase on Ni-NTA); Ssa1 variant together with Sis1 WT in solution, 1 µM each unless specified differently; buffer A (25 mM Hepes-KOH pH 8.0, 75 mM KCl, 15 mM MgCl2) with 2 mM DTT and 5 mM ATP; the signal is that of both chaperones

Chain of Ssa1 (P10591 whole entry): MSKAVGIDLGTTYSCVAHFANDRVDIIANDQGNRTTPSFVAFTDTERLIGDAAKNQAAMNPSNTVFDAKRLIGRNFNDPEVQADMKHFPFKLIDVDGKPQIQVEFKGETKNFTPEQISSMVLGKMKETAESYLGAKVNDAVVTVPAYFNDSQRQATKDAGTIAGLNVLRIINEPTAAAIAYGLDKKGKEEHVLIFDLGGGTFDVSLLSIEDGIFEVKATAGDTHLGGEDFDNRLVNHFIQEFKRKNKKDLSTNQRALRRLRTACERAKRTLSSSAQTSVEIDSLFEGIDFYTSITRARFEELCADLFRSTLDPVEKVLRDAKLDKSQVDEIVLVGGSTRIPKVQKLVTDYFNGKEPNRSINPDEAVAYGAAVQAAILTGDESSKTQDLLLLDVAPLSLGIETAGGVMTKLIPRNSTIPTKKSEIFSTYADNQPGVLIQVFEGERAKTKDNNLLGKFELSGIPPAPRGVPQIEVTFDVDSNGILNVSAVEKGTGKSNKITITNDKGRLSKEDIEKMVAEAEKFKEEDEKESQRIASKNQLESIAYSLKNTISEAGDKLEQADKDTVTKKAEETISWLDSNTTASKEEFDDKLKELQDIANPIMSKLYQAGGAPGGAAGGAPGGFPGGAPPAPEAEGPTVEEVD
Chain of His-tagged luciferase, heat-aggregated on the BLI sensor [luciferase: P08659] (P08659 whole entry): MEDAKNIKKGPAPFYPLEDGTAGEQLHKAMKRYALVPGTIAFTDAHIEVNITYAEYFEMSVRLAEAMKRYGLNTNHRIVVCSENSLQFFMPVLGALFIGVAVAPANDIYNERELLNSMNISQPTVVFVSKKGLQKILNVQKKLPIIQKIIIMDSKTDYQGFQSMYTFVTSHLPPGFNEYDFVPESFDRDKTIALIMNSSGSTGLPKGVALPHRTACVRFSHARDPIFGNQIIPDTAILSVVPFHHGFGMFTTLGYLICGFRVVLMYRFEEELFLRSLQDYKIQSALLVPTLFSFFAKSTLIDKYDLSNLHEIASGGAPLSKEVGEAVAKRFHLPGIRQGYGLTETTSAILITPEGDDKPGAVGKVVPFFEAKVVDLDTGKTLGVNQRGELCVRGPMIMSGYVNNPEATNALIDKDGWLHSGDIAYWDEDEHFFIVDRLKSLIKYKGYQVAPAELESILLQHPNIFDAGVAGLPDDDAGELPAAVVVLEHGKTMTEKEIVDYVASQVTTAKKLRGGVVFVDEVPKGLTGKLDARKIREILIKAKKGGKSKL

BLI layer thickness (Sis1 and Ssa1 together): 7 nm
Substance: Ssa1 (from UniProt P10591 1-642) (natural protein)
